For assay [1], the target named is biotinylated SARS-CoV-2 fusion peptide (SARS-CoV-2, biotin on the N-terminus). In words: BLI. As to conditions: both partners purified.
The target in assay [2] is His6-tagged SARS-CoV-2 receptor-binding domain (SARS-CoV-2, UniProt P0DTC2). Briefly: BLI. The following applies: both partners purified.

B1: COV44-62 Fab VH R50W (Fab, V domains shown)
VH: QMQLMQSGAEVKKPGASVTVSCKASGDTFSDYRIHWVRQAPGQGLEWMGWMNPKSGDTNFAQKFQGRVTMTRDMSINTAYMTLSGLTFDDTALYYCASLLIVGGFDPLDDFEVWGQGTMVTISS
VL: QSALTQPPSASGSPGQSVTISCSGTSSDVGGYNFVSWYQHHPGKAPKILIYEVTKRPSGVPDRFSGSKSGNTASLTVSGLQAEDEADYYCSSYGGTNNLLFGGGTKLTVL
For the molecule B1, the binding result in assay [1] is “no binding (tested: 33 nM, 100 nM, and 300 nM)”.

B2: GAR12 Fab VL D50K (Fab, V domains shown)
VH: EVQLVQSGGGLVQPGGSLRLSCAASGFTFSSYAMSWVRQAPGKGLEWVLSISGSGGSTYYADSVKGRFTISIDNSKKTVYLQMNSLRAEDTAVYYCAKSGEQQLVQAEYFHHWGQGTLVTVSS
VL: DIQMTQSPSTLSASVGDRVTITCRASQSIGRWLAWYQQKPGKAPKLLIYKASSLESGVPSRFSGSGFGTEFTLTISSLQPDDFATYYCQQCDSLLTFGGGTKLEIK
As for B2, the “fold change in KD against the wild-type Fab” value in assay [2] was determined as 44 fold.

Source of the values: article PMC10636607 (Cell Reports, 2023).
